Reference: PMC8238635

Key:
[1] = biological target: T1, Nsp8 (SARS-CoV-2 (taxid 2697049), UniProt P0DTD1 3943-4140); assay: EMSA; split bands; conditions: protein: recombinant, tags: N-terminal His6-TEV, cleaved, single strand
[2] = biological target: T1, Nsp8; assay: SEC-MALS-SAXS; 1:1 complex, high affinity; conditions: protein: recombinant; tags: N-terminal His6-TEV, cleaved; label: 32P in EMSA; none in SEC; single strand
[3] = biological target: Nsp8;Nsp12 (RdRp) (SARS-CoV-2 (taxid 2697049);SARS-CoV-2 …, UniProt P0DTD1;P0DTD1 3943-4140;4393-5324, |); assay: SEC-MALS-SAXS; excess RNA; low or nonexistent binding; conditions: protein: recombinant;recombinant, tags: N-terminal His6-TEV, cleaved;N-terminal His6-TEV, copies: 1;1
[4] = biological target: T1, Nsp8; assay: SEC-MALS-SAXS; conditions: protein: recombinant; tags: N-terminal His6-TEV, cleaved

B1: long ssRNA without poly-U 5' end (ssRNA)
RNA: CAUGCUACGCGUAGCAUGCUACGCGUAGCAUG
B1: binds ([1]; label: 32P).

B2: long ssRNA (36 bases) (ssRNA)
RNA: UUUUCAUGCUACGCGUAGCAUGCUACGCGUAGCAUG
B2: binds [2].

B3: dsRNA (long ssRNA paired to short ssRNA) (dsRNA)
RNA 1: UUUUCAUGCUACGCGUAGCAUGCUACGCGUAGCAUG
RNA 2: CAUGCUACGCGUAGCAUGCUACGCGUAG
B3: no binding [3]; binds [4].

B4: short ssRNA (28 bases) (ssRNA)
RNA: CAUGCUACGCGUAGCAUGCUACGCGUAG
B4: binds ([1]; label: 32P in EMSA, none in SEC).
